Assay results as given in paper PMC3141380, “Crystal structure of alkyl hydroperoxidase D like protein PA0269 from Pseudomonas aeruginosa: Homology of the AhpD-like structural family” (BMC Structural Biology, 2011).

Tests used:
[1] = biological target: the molecule itself; assay: SEC; Superdex 200 26/60, 10 mM HEPES pH 7.5, 0.25 M NaCl, 0.5 mM TCEP; data not shown
[2] = biological target: the molecule itself; assay: crystal structure; SeMet protein, space group P6(3)22, one molecule in the asymmetric unit; hexamer built by crystallographic symmetry; crystals from 0.1 M Tris pH 7.6, 0.2 M NaCl, phosphate, 20°C

B1: Alkyl hydroperoxidase D like protein PA0269 from Pseudomonas aeruginosa (natural protein, P. aeruginosa, UniProt Q9I6M1 1-145, looked up)
chain: MTTRLEWAKASPDAYAAMLGLEKALAKAGLERPLIELVYLRTSQINGCAYCVNMHANDARKAGETEQRLQALCVWQETPYFTPRERAALAWTEQLARLSQGALPHGLLDELREHFDDKEIAELTLAVSAINAWNRFGVGMGMQPE
modifications: selenomethionine (four Se-Met residues found in the structure, Se in partial occupancy)
notes: PA0269 (AhpD-like protein), Pseudomonas aeruginosa strain 633 (ATCC 17933D) genomic DNA, full length protein of 145 aa, cloned in pET15b; A native sample with and without the His tag was also made; also called P. aeruginosa AhpD; putative AhpD; source: E. coli BL21 (DE3), M9 selenomethionine media, purified (DE52, Ni-NTA, Superdex 200 gel filtration)
stoichiometry N [1]: 5.5
stoichiometry N [2]: 6
